The subject of one series is zebrafish RHBDL2. In words: Zebrafish RHBDL2 knockout by antisense morpholino injection into embryos. Format: in vivo, Zebrafish (Danio rerio). The following applies: injected into 1-4 cell embryos at 2-4 μM, assessed after 24 and 48 hours. On the procedure: Knockout of the zebrafish RHBDL2 was performed by standard procedures (McClintock J M, Kheirbek M A, Prince V E. 2002. Development. 129, 2339-2354.). A morpholino antisense oligonucleotide ([…]) SEQ.ID. 7 complementary to the region of the cDNA surrounding the start of translation was injected into 1-4 cell embryos at 2-4 μM. After 24 and 48 hours the phenotype was assessed and compared with wild-type embryos of equivalent stages. In situ hybridisation to RHBDL2 was performed by standard techniques.
To investigate the role of vertebrate Rhomboids, the zebrafish homologue of human RHBDL2 (sequenced from cDNA clone 2652120, GenBank accession number AW422344) was knocked out using the standard technology of antisense morpholino oligonucleotides (reviewed in Heasman J. Dev Biol. Mar. 15, 2002;243(2):209-14), which allows the rapid removal of a gene function. Zebrafish embryos are a common model system as their embryonic development is easily observed.

The subject of the next series is release of TGFα. In words: Release/secretion of TGFα from transfected COS cells. Format: cell-based, human. The following applies: expression of truncated Rhomboid-1, compared with control. The method, then:
COS cells were grown in DMEM medium (supplemented with 10% foetal calf serum), and transfected with FuGENE 6 Transfection Reagent (Roche). Cells were transfected in 35 mm culture wells with 25-250 ng of each construct and empty plasmid to bring the total DNA to 1 μg per well. 24-30 hours post-transfection the medium was replaced with serum-free medium; this was harvested 24 hours later and cells were lysed in SDS-sample buffer. GFP was detected in conditioned medium and cell lysates by western blot with a rabbit polyclonal antibody. For some experiments the serum-free medium was supplemented with the metalloprotease inhibitor batimastat (British Biotech) or ilomostat (Calbiochem).
Spitz, Star and Rhomboid-1 are the only Drosophila proteins present in the transfected mammalian cells. A possible hypothesis is that these proteins are able to recruit a mammalian protease to a processing complex. If this were the case, the principle candidate for the putative mammalian protease would be a member of the ADAM family of metalloproteases. These proteases have broad specificity and are responsible for the release of a large number of mammalian growth factors, including the Spitz homolog, TGFα. The possible involvement of these proteases was tested with the potent metalloprotease inhibitor batimastat (British Biotechnology) at 1 μM and 10 μM. […]

The target of a further series is T1, Rhomboid-1 (Drosophila melanogaster, UniProt P20350).
T1 construct: When co-expressed with Star and full-length Rhomboid-1 in the COS cell Spitz cleavage assay; expressed in transfected cells; host or cells: COS cells, pcDNA3.1 constructs, transient transfection
T1 sequence (P20350 1-355): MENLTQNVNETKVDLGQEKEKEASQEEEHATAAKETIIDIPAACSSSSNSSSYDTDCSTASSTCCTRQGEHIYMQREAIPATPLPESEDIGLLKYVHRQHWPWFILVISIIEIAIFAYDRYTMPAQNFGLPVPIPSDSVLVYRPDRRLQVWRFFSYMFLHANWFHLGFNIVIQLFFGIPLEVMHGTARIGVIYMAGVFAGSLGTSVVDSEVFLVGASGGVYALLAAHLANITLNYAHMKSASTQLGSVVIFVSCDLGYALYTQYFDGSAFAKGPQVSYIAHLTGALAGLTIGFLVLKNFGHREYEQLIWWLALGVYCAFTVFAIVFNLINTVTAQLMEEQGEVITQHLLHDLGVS
The experiment in a line: Rhomboid-1 and Star dependent cleavage of GFP-Spitz in transfected COS cells (western blot of medium). The following applies: co-expressed with Star and full-length Rhomboid-1 in COS cells. Format: cell-based. On the procedure:
COS cells were grown in DMEM medium (supplemented with 10% foetal calf serum), and transfected with FuGENE 6 Transfection Reagent (Roche). Cells were transfected in 35 mm culture wells with 25-250 ng of each construct and empty plasmid to bring the total DNA to 1 μg per well. 24-30 hours post-transfection the medium was replaced with serum-free medium; this was harvested 24 hours later and cells were lysed in SDS-sample buffer. GFP was detected in conditioned medium and cell lysates by western blot with a rabbit polyclonal antibody. For some experiments the serum-free medium was supplemented with the metalloprotease inhibitor batimastat (British Biotech) or ilomostat (Calbiochem). Cells were transfected as standard with 1 ng of Rhomboid-1 DNA (in 1 μg total DNA) and were then incubated in serum-free medium for 24 hours. The medium was then replaced with 0.5 ml serum free medium containing protease inhibitor at the indicated concentration and incubated for 1 hour. After 1 hour, the medium was collected, cleared by centrifugation, dialysed overnight against several changes of water and lyophilised. The resulting pellets were re-suspended in SDS sample buffer, boiled and analysed by Western blot. Transfections with a secreted form of Spitz were used in parallel to control for non-specific toxicity of the protease inhibitors or general inhibition of the secretory pathway. The proteolytic cleavage assay was recapitulated in a mammalian tissue culture system. Spitz was tagged with GFP near its N-terminus and transiently expressed in COS cells, in the presence or absence of Star and/or Rhomboid-1. The accumulation of the soluble extracellular fragment of GFP-Spitz in the cell medium was then measured by western blot.
In general terms: In western blotting, separated proteins are transferred to a membrane and probed.

With “anti-sense morpholino oligo TCTTGCTCTTCGGTGTCATTATCGC: morpholino antisense oligonucleotide complementary to the region of zebrafish RHBDL2 cDNA surrounding the start of translation (all phosphorodiamidate morpholino (PMO))”, in the series with zebrafish RHBDL2, the “embryo phenotype after knockout” value is “specific defects in the brain, the otic placode and the tail”.

B1: Rho-1-NTM1: residues 1 to 149 of Rhomboid-1: N-terminal cytoplasmic domain plus first TMD and part of first extracellular loop; dominant negative (protein, UniProt P20350 1-149, looked up, fragment)
chain: MENLTQNVNETKVDLGQEKEKEASQEEEHATAAKETIIDIPAACSSSSNSSSYDTDCSTASSTCCTRQGEHIYMQREAIPATPLPESEDIGLLKYVHRQHWPWFILVISIIEIAIFAYDRYTMPAQNFGLPVPIPSDSVLVYRPDRRLQ
Take B1: in the series on release of TGFα, the “TGFα synthesis or secretion” value is reported as “did not interfere”. In the series with Rhomboid-1, the “ability of wild-type Rhomboid-1 to promote GFP-Spitz cleavage” value is on record as “inhibited”.

The values are drawn from patent publication US7718391B2, “Assays for identifying modulators of rhomboid polypeptides” (Medical Research Council, priority 2001, dated 2010).
